Laboratory results reported in patent publication US20210054077A1 (AMUNIX PHARMACEUTICALS, published 2021).
One block for each binder: values may come before it.

Key:
[1] = target: human HER2 on cells (HER2 positive human carcinoma cells; CT26-huHER2 transfected cells; human cardiomyocytes) (human, UniProt P04626 23-1255); assay: cell-based or functional assay
Human CD3 ϵ -Fc = target: T1, Human CD3 ϵ -Fc (human, UniProt P07766 23-126); assay: BLI (ForteBio Octet Red); target-Fc loaded on anti-human Fc biosensor, AC2275 as analyte 1010 nM to 16 nM
T1 construct: not shown: Fc part, captured on anti-human Fc biosensors

Cyno CD3 ϵ -Fc = target: T2, Cyno CD3 ϵ -Fc (cynomolgus monkey, UniProt Q95LI5 22-117); assay: as above
T2 construct: also called cynomolgus monkey CD3; not shown: Fc part, captured on anti-human Fc biosensors
T2 sequence (looked up): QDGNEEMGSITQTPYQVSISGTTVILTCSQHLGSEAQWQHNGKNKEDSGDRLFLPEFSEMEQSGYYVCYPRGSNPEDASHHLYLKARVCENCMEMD

[2] = target: human HER2 on cells (HER2 positive human carcinoma cells; CT26-huHER2 transfected cells; human cardiomyocytes) (human) (UniProt P04626); assay: cell-based or functional assay
[3] = target: Biotinylated CD3CEµ antigen (Creative Biomart); assay: BLI (ForteBio BLItz); biotinylated CD3 antigen on streptavidin biosensor, scFv dilution series in solution
Sequence of Biotinylated CD3CEµ antigen (Creative Biomart) (P07766 23-126): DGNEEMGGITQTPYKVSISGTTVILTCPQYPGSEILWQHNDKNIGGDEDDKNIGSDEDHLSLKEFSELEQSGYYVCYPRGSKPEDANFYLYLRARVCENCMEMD

T1 sequence (P07766 23-126): as above

EC50, % CD69+ T cells in human PBMC co-cultured with SK-OV-3 cells (flow cytometry) [1]: 3.63 nM
Kd (Human CD3 ϵ -Fc): 111 nM
Kd (Cyno CD3 ϵ -Fc): 170 nM
B1: AC2275, bivalent anti-HER2, anti-CD3 XTENylated binder (HER2-XPAT of Example 24) (bispecific antibody)
chain: HHHHHHSPAGSPTSTEEGTSESATPESGPGTSTEPSEGSAPGTSESATPESGPGSEPATSGSETPGTSESATPESGPGSEPATSGSETPGTSESATPESGPGTSTEPSEGSAPGSPAGSPTSTEEGTSESATPESGPGSEPATSGSETPGTSESATPESGPGSPAGSPTSTEEGSPAGSPTSTEEGTSTEPSEGSAPGTSESATPESGPGTSESATPESGPGTSESATPESGPGSEPATSGSETPGSEPATSGSETPGSPAGSPTSTEEGTSTEPSEGSAPGTSTEPSEGSAPGGSAPEAGRSANHTPAGLTGPATSGSETPGTDIQMTQSPSSLSASVGDRVTITCKASQDVSIGVAWYQQKPGKAPKLLIYSASYRYTGVPSRFSGSGSGTDFTLTISSLQPEDFATYYCQQYYIYPYTFGQGTKVEIKGATPPETGAETESPGETTGGSAESEPPGEGEVQLVESGGGLVQPGGSLRLSCAASGFTFTDYTMDWVRQAPGKGLEWVADVNPNSGGSIYNQRFKGRFTLSVDRSKNTLYLQMNSLRAEDTAVYYCARNLGPSFYFDYWGQGTLVTVSSGGGGSELVVTQEPSLTVSPGGTVTLTCRSSNGAVTSSNYANWVQQKPGQAPRGLIGGTNKRAPGTPARFSGSLLGGKAALTLSGVQPEDEAVYYCALWYPNLWVFGGGTKLTVLGATPPETGAETESPGETTGGSAESEPPGEGEVQLLESGGGIVQPGGSLKLSCAASGFTFNTYAMNWVRQAPGKGLEWVARIRSKYNNYATYYADSVKDRFTISRDDSKNTVYLQMNNLKTEDTAVYYCVRHENFGNSYVSWFAHWGQGTLVTVSSGTAEAASASGEAGRSANHTPAGLTGPPGSPAGSPTSTEEGTSESATPESGPGTSTEPSEGSAPGSPAGSPTSTEEGTSTEPSEGSAPGTSTEPSEGSAPGTSESATPESGPGSEPATSGSETPGSEPATSGSETPGSPAGSPTSTEEGTSESATPESGPGTSTEPSEGSAPGTSTEPSEGSAPGSPAGSPTSTEEGTSTEPSEGSAPGTSTEPSEGSAPGTSESATPESGPGTSTEPSEGSAPGTSESATPESGPGSEPATSGSETPGTSTEPSEGSAPGTSTEPSEGSAPGTSESATPESGPGTSESATPESGPGSPAGSPTSTEEGTSESATPESGPGSEPATSGSETPGTSESATPESGPGTSTEPSEGSAPGTSTEPSEGSAPGTSTEPSEGSAPGTSTEPSEGSAPGTSTEPSEGSAPGTSTEPSEGSAPGSPAGSPTSTEEGTSTEPSEGSAPGTSESATPESGPGSEPATSGSETPGTSESATPESGPGSEPATSGSETPGTSESATPESGPGTSTEPSEGSAPGTSESATPESGPGSPAGSPTSTEEGSPAGSPTSTEEGSPAGSPTSTEEGTSESATPESGPGTSTEPSEGSAPGAAEPEA
notes: also called HER2-XPAT 2275
IC50, T-cell directed cytotoxicity (CellTiter-Glo ATP assay), BT474 cells with human PBMC [1]: 1.36 nM
IC50, T-cell directed cytotoxicity (CellTiter-Glo ATP assay), MCF7 cells with human PBMC [1]: > 26.7 nM
IC50, T-cell directed cytotoxicity (CellTiter-Glo ATP assay), SKOV3 cells with human PBMC [1]: 15.3 nM

B2: pJB0244, masked anti-HER2 x anti-CD3 bispecific antigen binding polypeptide with two XTEN and two RSR2295 release segments (bispecific antibody, part only; not given: AE868 XTEN, scFv linker, not shown: small tags and cut ends)
chain, part: HHHHHHSPAGSPTSTEEGTSESATPESGPGTSTEPSEGSAPGTSESATPESGPGSEPATSGSETPGTSESATPESGPGSEPATSGSETPGTSESATPESGPGTSTEPSEGSAPGSPAGSPTSTEEGTSESATPESGPGSEPATSGSETPGTSESATPESGPGSPAGSPTSTEEGSPAGSPTSTEEGTSTEPSEGSAPGTSESATPESGPGTSESATPESGPGTSESATPESGPGSEPATSGSETPGSEPATSGSETPGSPAGSPTSTEEGTSTEPSEGSAPGTSTEPSEGSAPGGSAPEAGRSANHTPAGLTGPDIQMTQSPSSLSASVGDRVTITCKASQDVSIGVAWYQQKPGKAPKLLIYSASYRYTGVPSRFSGSGSGTDFTLTISSLQPEDFATYYCQQYYIYPYTFGQGTKVEIKGATPPETGAETESPGETTGGSAESEPPGEGEVQLVESGGGLVQPGGSLRLSCAASGFTFTDYTMDWVRQAPGKGLEWVADVNPNSGGSIYNQRFKGRFTLSVDRSKNTLYLQMNSLRAEDTAVYYCARNLGPSFYFDYWGQGTLVTVSSELVVTQEPSLTVSPGGTVTLTCRSSNGAVTSSNYANWVQQKPGQAPRGLIGGTNKRAPGTPARFSGSLLGGKAALTLSGVQPEDEAVYYCALWYPNLWVFGGGTKLTVLGATPPETGAETESPGETTGGSAESEPPGEGEVQLLESGGGIVQPGGSLKLSCAASGFTFNTYAMNWVRQAPGKGLEWVARIRSKYNNYATYYADSVKDRFTISRDDSKNTVYLQMNNLKTEDTAVYYCVRHENFGNSYVSWFAHWGQGTLVTVSSEAGRSANHTPAGLTGP
EC50 (pM), cytotoxicity (Caspase-Glo 3/7), BT-474 cells with human PBMC [2]: 66000 pM
EC50 (pM), cytotoxicity (Caspase-Glo 3/7), SK-Br3 cells with human PBMC [2]: 19500 pM
EC50 (pM), cytotoxicity (Caspase-Glo 3/7), SKOV-3 cells with human PBMC [2]: 14100 pM

Kd [3]: 75 nM
B3: CD3.9 scFv (scFv)
scFv: ELVVTQEPSLTVSPGGTVTLTCRSSTGAVTTSNYANWVQQKPGQAPRGLIGGTNKRAPGTPARFSGSLLGGKAALTLSGVQPEDEAEYYCALWYSNLWVFGGGTKLTVLGATPPETGAETESPGETTGGSAESEPPGEGEVQLLESGGGLVQPGGSLKLSCAASGFTFNTYAMNWVRQAPGKGLEWVARIRSKYNNYATYYADSVKDRFTISRDDSKNTAYLQMNNLKTEDTAVYYCVRHGNFGNSYVSWFAYWGQGTLVTVSS

Kd [3]: 296 nM
B4: CD3.24 scFv (scFv)
scFv: ELVVTQEPSLTVSPGGTVTLTCRSSNGEVTTSNYANWVQQKPGQAPRGLIGGTIKRAPGTPARFSGSLLGGKAALTLSGVQPEDEAVYYCALWYPNLWVFGGGTKLTVLGATPPETGAETESPGETTGGSAESEPPGEGEVQLLESGGGIVQPGGSLKLSCAASGFTFNTYAMNWVRQAPGKGLEWVARIRSKYNNYATYYADSVKDRFTISRDDSKNTVYLQMNNLKTEDTAVYYCVRHENFGNSYVSWFAHWGQGTLVTVSS

Kd [3]: 215 nM
B5: CD3.25 scFv (scFv)
scFv: ELVVTQEPSHTVSPGGTVTLTCRSSTGAVTSSNYANWVQQKPGQAPRGLIGGTIKRAPGTPARFSGSLLGGKAALTLSGVQPEDEAEYYCALWYPNLWVFGGGTKLTVLGATPPETGAETESPGETTGGSAESEPPGEGEVQLLESGGGIVQPGGSLKLSCAASGFTFNTYAMNWVRQAPGKGLEWVARIRSKYNNYATYYADSVKDRFTISRDDSKNTVYLQMNNLKTEDTAVYYCVRHENFGNSYVSWFAHWGQGTLVTVSS

Kd [3]: 221 nM
B6: CD3.26 scFv (scFv)
scFv: ELVVTQEPSHTVSPGGTVTLTCRSSTGEVTTSNYANWVQQKPGQAPRGLIGGTIKRAPGTPARFSGSLLGGKAALTLSGVQPEDEAEYYCALWYPNLWVFGGGTKLTVLGATPPETGAETESPGETTGGSAESEPPGEGEVQLLESGGGIVQPGGSLKLSCAASGFTFNTYAMNWVRQAPGKGLEWVARIRSKYNNYATYYADSVKDRFTISRDDSKNTVYLQMNNLKTEDTAVYYCVRHENFGNSYVSWFAHWGQGTLVTVSS

Kd [3]: 175 nM
B7: CD3.23 scFv (scFv)
scFv: ELVVTQEPSLTVSPGGTVTLTCRSSNGAVTSSNYANWVQQKPGQAPRGLIGGTNKRAPGTPARFSGSLLGGKAALTLSGVQPEDEAVYYCALWYPNLWVFGGGTKLTVLGATPPETGAETESPGETTGGSAESEPPGEGEVQLLESGGGIVQPGGSLKLSCAASGFTFNTYAMNWVRQAPGKGLEWVARIRSKYNNYATYYADSVKDRFTISRDDSKNTVYLQMNNLKTEDTAVYYCVRHENFGNSYVSWFAHWGQGTLVTVSS
